Measured values as given in the supplement of paper PMC9170038.

System: MS2 coat protein
Assay: apparent KD of MS2 coat protein; designed switch direction (-1 OFF switch, 1 ON switch): 1; higher = weaker reporter binding
Procedure, shortened: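 The buffer was Tris-HCl pH 7.5 with KCl, MgCl2, BSA, DTT, tRNA and Tween-20. In it, SNAP-549-labelled MS2 coat protein was titrated in doubling steps from 0.7 or 1.5 nM to 3 µM over chip-bound RNA switches transcribed by stalled E. coli RNA polymerase on Illumina chips. Apparent KD is the per-design median over clusters of curve fits to normalised fluorescence.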

[1] = input ligand: microRNA oligo, concentration not stated
[2] = Eterna round: R95, input ligand: FMN 200 uM
[3] = Eterna round: R95, input ligand: microRNA oligo, concentration not stated
[4] = Eterna round: R95, input ligand: none

Sequence	apparent KD of MS2 coat protein (input ligand: FMN 200 uM)	apparent KD of MS2 coat protein [1]	apparent KD of MS2 coat protein (input ligand: none)	apparent KD of MS2 coat protein [2]	apparent KD of MS2 coat protein [3]	apparent KD of MS2 coat protein [4]
AACCCGAAGGGAGGAUAUGGCACCUUAUUGGUGCCAGAAGGUCCUCACAUGAGGAUCACCCAUGUGGGCCGGUCGAAAGACCGG [Fiskers NG1ss - 12] (Eterna round: R96, puzzle: Same State NG 1)	532 nM	407 nM	500 nM			
UGUUGUAUUACAGGAUAUCUAUUAUUUUUAUUUAGAGAAGGGUAUUCACAUGAGGAUCACCCAUGUAUAUACGAGGAAGUUGUG [JMF's solution 6] (Eterna round: R96, puzzle: Same State NG 1)		42.7 nM				
AAACUACGUGCACAGGAUAUACGUUCCUAUACAUGAGGAUCACCCAUGUACCAACCGAAAAGGAAGUAGAAGGGUGUCCGUAAAC [Esardixequ] (puzzle: Same State 2)				19.2 nM	51.6 nM	57.2 nM
GGUAGGUUACUACCAAACAUGAGGAUCACCCAUGUAAGUGGGAAGGAUAUGGUACCUAAAAGGUACCAGAAGGUCCAAUUAAUU [Mat - Same State NG 3 - JL Mod - D98] (Eterna round: R96, puzzle: Same State NG 3)	188 nM	436 nM	584 nM			
GACCAACAUGAGGAUCACCCAUGUUUCUGAGGCACAGGAUAUCGACAGGCAAGACACCUGCGAGAAGGGUGACCUC [Same State 1 - Mod of Vinnie Diatater v.3] (puzzle: Same State 1)				49.2 nM	38.8 nM	30.2 nM
ACAUGAAAUGCAGGAUAUUUUGUACCUACAUGUGACAUGAGGAUCACCCAUGUGGUAAGUAUAAGAGAGAAGGGUAAGAUAUGU [Equivalence 3 - Jieux - Same State NG 2] (Eterna round: R96, puzzle: Same State NG 2)	60.6 nM	48.3 nM	72.3 nM			
GGAGCCGGCCUAGGAUAUUUCAUAAUAAAACAUGAGGAUCACCCAUGUAGGCCAGAAGGCCUUGGGAAGAAGGAGGUCGGCUCC [Loop Effect - U26] (Eterna round: R96, puzzle: Same State NG 2)	12.1 nM	30.2 nM	47 nM			
AGCUAUUAAUCAGGAUAUGGUCACAUGAGGAUCACCCAUGUGUAGAUGAUAAAAUGUGGUCAACACUAGAAGGGAUUGCUAACA [SameState NG2 #61] (Eterna round: R96, puzzle: Same State NG 2)	26.8 nM	25.1 nM	37 nM			
AACAAUCUAUCUGAGGAUAUCAUGAAAAAAACAUGAGGAUCACCCAUGUGCAGGAAAACUGCAUAUGAGAAGGCAGAUAGAUUGA [salish99_SS2_r3_001] (Eterna round: R96, puzzle: Same State 2)		490 nM				
UUAAUGAUGUAAGGAUAUACAUGAGGAUUUCUCGUAGAAGGUACAAGACAUGAGGAUCACCCAUGUAUCGCUCCGUAGAGCGUA [JL SSNG1 1.10] (Eterna round: R96, puzzle: Same State NG 1)	652 nM	101 nM	287 nM			
GGUACAGUUACAGGAUAUGCUAUCCUUUGGGUAGCAGAAGGGUGGUAACAUGAGGAUCACCCAUGUGUGCCAGGGCGUGAGCCC [JL SSNG1 1.99] (Eterna round: R96, puzzle: Same State NG 1)	502 nM	387 nM	700 nM			
AAAAUGGCAUGUUACAUGAGGAUCACCCAUGUGCCGUCAACUGAGGAUAUGGUGCUGUAGAAGAAUCAGAAGGUAGUCAUUUAA [AK SSNG3-V2-27] (Eterna round: R96, puzzle: Same State NG 3)	22.6 nM	15.8 nM	27 nM			
AAAGAAGAAAGACAGGAUAUGGAUGGGUAAACAUGAGGAUCACCCAUGUAUAAGAAAGAAAGAAACCAGAAGGGUCAAAAGAAAA [Darius III] (Eterna round: R96, puzzle: Same State 2)	68.7 nM	217 nM	253 nM			
UGUAAACAUGAGGAUCACCCAUGUAAUAUAAUGGGAGGAUAUCUGAAUUAAUUAAAUUAAGGAGAAGGCCUAAUGU [Mat - Same State 1 - Mod of Eli - D47] (puzzle: Same State 1)				53.2 nM	288 nM	482 nM
UGUUGUUACGCAGGAUAUGGUCACAUGAGGAUCACCCAUGUAUUGUCGAUGCUAUGUGGAUUUGAUCAGAAGGGCGGGUUAACA [SameState NG2 #100] (Eterna round: R96, puzzle: Same State NG 2)	63.8 nM	88.9 nM	103 nM			
GGAGGGAGGGCGCAGGAUAUCGAUAAUGACACAUGAGGAUCACCCAUGUUUGGUAUUAGAAGGAACGAGAAGGGUGAGAGGAGGG [red_knee_arm] (puzzle: Same State 2)				36.1 nM	35.1 nM	53.2 nM
GUUAUACAUGAGGAUCACCCAUGUCAAUGUAGUCGAGGAUAUGGGCAGCUGUGAGGCGUACUAGAAGGCGAAGAGG [JL-ss1-3.10 ViennaUCT mod] (puzzle: Same State 1)				86.1 nM	198 nM	170 nM
AUAUGAGAAGCAGGAUAUGCGGAGAAGAAAGAAGCAGAAGGGCUUAUGGGACAACAUGAGGAUCACCCAUGUUCUCUGUGAUGA [AK SSNG1-V2-3] (Eterna round: R96, puzzle: Same State NG 1)	24.3 nM	48.9 nM	56.5 nM			
UGAAUACAUGAGGAUCACCCAUGUCAACGUAGUCGAGGAUAUGGGCAGCCGUGAGGCGUACUAGAAGGCGAAGAGG [JL-ss1-3.07 ViennaUCT mod] (puzzle: Same State 1)				131 nM	89.9 nM	175 nM
ACGUCGAGAUCACAGGAUAUACUCACAUCUACAUGAGGAUCACCCAUGUAGCGGUAUUCCGGUGCGUAGAAGGGUGAUCGACGAC [Same State 2 - Mod of Artece v.5] (puzzle: Same State 2)				14.6 nM	9.7 nM	11.9 nM
UUGGUGUAGAUACAGGAUAUGUUGCUUGUAACAUGAGGAUCACCCAUGUAUCUAUGAGAUUAAAUGCAGAAGGGUGCACAUCACU [salish99_ss2_r3_089] (puzzle: Same State 2)				390 nM	582 nM	1020 nM
UGUUGUAUUACAGGAUAUCUAUUAGUUUCAUUUAGAGAAGGGUAUUCACAUGAGGAUCACCCAUGUAUAUACGAGGAAGUUGUG [JMF's solution 95] (Eterna round: R96, puzzle: Same State NG 1)	55 nM	44.4 nM	59.6 nM			
GAGAAGAGGGACAAGGAUAUGUCAGGAGAGACAUGAGGAUCACCCAUGUAGAGGUUGGAGGAGAGACAGAAGGUGUCGAGAGCGA [JR_SS2_Sub014] (puzzle: Same State 2)				123 nM	143 nM	361 nM
